Consider 64 variants from the RNAGym collection of RNA variant scans (doi:10.7554/elife.80360).

The chains are these.
B1: HDV Ribozyme (parent)
chain: GGCCGGCAUGGUCCCAGCCUCCUCGCUGGCGCCGGCUGGGCAACAUUCCGAGGGGACCGUCCCCUCGGUAAUGGCGAAUGGGACCCA

The variants in this data set derive from B1. The data set is described as follows: self-cleavage, relative activity (ratio to wild type); higher = more cleavage; co-transcriptional.
AGCCGGCAUGGUCCCAGCCUCCUCGCUGGCGCCGGCUGGGCAACAUUCCGAGGGGACCGUCCCCUCGGUAAUGGCGAAGGGGACCCA: the self-cleavage was determined as 0.0923.

For CGCCGGCAUGGUCCCAGCCUCCUCGCUGGCGCCGGCUGGGCAACAUUCCGUGGGGACCGUCCCCUCGGUAAUGGCGAAUGGGACCCA, the self-cleavage came to 0.222.

CGCCGGCAUGGUCCCAGCCUCCUCGCUGGCGCCGGCUGGGCAACAUUCCGAGGGGACCGUCCCCUCGGUAUUGGCGAAUGGGACCCA: the self-cleavage was found to be 0.

As for CGCCGGCAUGGUCCCGGCCUCCUCGCUGGCGCCGGCUGGGCAACAUUCCGAGGGGACCGUCCCCUCGGUAAUGGCGAAUGGGACCCA, the self-cleavage turned out to be 0.196.

For CGCCGGCAUGGUCCCAGCCUCCUCGCUGGCGCCGGCUGGGCAAGAUUCCGAGGGGACCGUCCCCUCGGUAAUGGCGAAUGGGACCCA, the self-cleavage came to 0.0692.

For CGCCGGCAUGGUCCCAGCCUCCUCGCUGGCGCCGGCUGGGCAAAAUUCCGAGGGGACCGUCCCCUCGGUAAUGGCGAAUGGGACCCA, the self-cleavage came to 0.353.

On to CGCCGGCAUGGUCCCAGCCUCCUCGCUGGCGCCGGCUGGGCAAUAUUCCGAGGGGACCGUCCCCUCGGUAAUGGCGAAUGGGACCCA, for which the self-cleavage stood at 0.0615.

Turning to CGCCGGCAUGGUCCCAGCCUCCUCGCUGGCUCCGGCUGGGCAACAUUCCGAGGGGACCGUCCCCUCGGUAAUGGCGAAUGGGACCCA, the self-cleavage was determined as 0.0791.

With CGCCAGCAUGGUCCCAGCCUCCUCGCUGGCGCCGGCUGGGCAACAUUCCGAGGGGACCGUCCCCUCGGUAAUGGCGAAUGGGACCCA, the self-cleavage was 0.0536.

For the variant CGCCGGCAUGGUCCCAGCCUCCUCGCUGGCGCCGGCUGGGCAACAUUCCGAGGGGACCGUCCCCUCGCUAAUGGCGAAUGGGACCCA, the self-cleavage worked out at 0.0978.

Turning to CCCCGGCAUGGUCCCAGCCUCCUCGCUGGCGCCGGCUGGGCAACAUUCCGAGGGGACCGUCCCCUCGGUAAUGGCGAAUGGGACCCA, the self-cleavage came out at 1.06.

As for CGCCGGCAUGGUCCCAGCCUCCUCGCUGGCGCCGGCUGGGCAACAUUCCGAGGAGACCGUCCCCUCGGUAAUGGCGAAUGGGACCCA, the self-cleavage stood at 0.131.

Consider CGCCGGCAUGGUCCCAGCCUCCUCGCUGGCGCCGGCUGGGCAACAUUCCGAGGGGACCGUCCCCUCGGUAAUGGCGACUGGGACCCA, for which the self-cleavage turned out to be 0.

With CGCCGGCAUGGUCCCAGCCUCCUCGCUGGCGCCAGCUGGGCAACAUUCCGAGGGGACCGUCCCCUCGGUAAUGGCGAAUGGGACCCA, the self-cleavage is 0.0405.

For the variant CGCCGGCAUGGUCCCAGCCUCCUCGCUGGCGCCGGCUGGCCAACAUUCCGAGGGGACCGUCCCCUCGGUAAUGGCGAAUGGGACCCA, the self-cleavage was determined as 0.0475.

For the variant CGCCGGCAUGGUCCCAGCCUCCUCGCUGGCGCCGGCUGGGCAACAUUCCGAGGGGACCGUCCCCUCGGUAAUGGCGAAUGAGACCCA, the self-cleavage was 0.

With CGCCGGCAUGGUCCCAGCCUCCUCGCUGGCGCCGGCUGGGCAACAUUUCGAGGGGACCGUCCCCUCGGUAAUGGCGAAUGGGACCCA, the self-cleavage was 0.227.

For CGCCGGCAUGGUCCCAGCCUCCUCGCUGGCGCCGGCUGGGCAACAUUCCGAGGGGACCGUCCCCUCGGUAAUGGCGAAUGGGACUCA, the self-cleavage was determined as 0.266.

As to CGCCGGCAUGGUCCCAGCCUCCUCGCUGGCGCCGGCUGGGCAACAUUCCGAGGGGACCGUCCCCUCGGUAAUGGCGAAUGGGACGCA, the self-cleavage was determined as 0.151.

CGCCGGGAUGGUCCCAGCCUCCUCGCUGGCGCCGGCUGGGCAACAUUCCGAGGGGACCGUCCCCUCGGUAAUGGCGAAUGGGACCCA: the self-cleavage worked out at 0.0875.

Take CGCCGGCAUGGUCCCAGCCUCCUCGCUGGCGCCGGCUGGGCAACAUUCCGAGGGGACCGUCCCCUCGGUAAUGGAGAAUGGGACCCA: the self-cleavage was 0.

In the case of CGCCGGCAUGGUUCCAGCCUCCUCGCUGGCGCCGGCUGGGCAACAUUCCGAGGGGACCGUCCCCUCGGUAAUGGCGAAUGGGACCCA, the self-cleavage was 0.125.

Turning to CGCCGGCAUGGUCCCAGCCUCCUUGCUGGCGCCGGCUGGGCAACAUUCCGAGGGGACCGUCCCCUCGGUAAUGGCGAAUGGGACCCA, the self-cleavage came out at 0.0489.

CGCCGGCAUGGUCCCAGCCUCCUCGCUGGUGCCGGCUGGGCAACAUUCCGAGGGGACCGUCCCCUCGGUAAUGGCGAAUGGGACCCA: the self-cleavage was 0.0755.

As for CGCCGGCAUGGUCCUAGCCUCCUCGCUGGCGCCGGCUGGGCAACAUUCCGAGGGGACCGUCCCCUCGGUAAUGGCGAAUGGGACCCA, the self-cleavage is 0.0831.

Regarding CGCCGGCAUGGUCCCAGCCUCUUCGCUGGCGCCGGCUGGGCAACAUUCCGAGGGGACCGUCCCCUCGGUAAUGGCGAAUGGGACCCA, the self-cleavage was 0.148.

Consider CGCCGGCAUGGUCCCAGCCUCCUCGCUGGCGCCGGCUGGGCAACAUUCCGAGGGGACCGUCCCCUCGGUAAUUGCGAAUGGGACCCA, for which the self-cleavage was 0.0426.

As for CGCCGGCAUGGUCCCAGCCUCCUCGCUGGCGCCGGCUGGGCAACAUUCCGAGGGGACCGUCCCCUCGGUAAUGUCGAAUGGGACCCA, the self-cleavage worked out at 0.133.

As to CGUCGGCAUGGUCCCAGCCUCCUCGCUGGCGCCGGCUGGGCAACAUUCCGAGGGGACCGUCCCCUCGGUAAUGGCGAAUGGGACCCA, the self-cleavage was determined as 0.34.

For the variant CGCCGGCAUGGUCCCAGCCUCCUCGCUGACGCCGGCUGGGCAACAUUCCGAGGGGACCGUCCCCUCGGUAAUGGCGAAUGGGACCCA, the self-cleavage was 0.0536.

Turning to CGCCGGCAUGGUCCCAGCCUCCUCGCUGUCGCCGGCUGGGCAACAUUCCGAGGGGACCGUCCCCUCGGUAAUGGCGAAUGGGACCCA, the self-cleavage was 0.142.

With CGCCGGCAUGGUCCCAGCCUCCUCGCUGGCGCCGGCUGGGCAACAUUCCGAGGGGACCGUCCCCUCGGUAAUGGCGAAUCGGACCCA, the self-cleavage is 0.0475.

CGCCGGCAUGGUCCCAGCCUCCUCGCUGGCGCCGGCUGGGCAACAUUCCGAGGGGACCGUCCCCUCGGUAAUGGCAAAUGGGACCCA: the self-cleavage turned out to be 0.26.

Regarding CGCCGGCAUGGUCCCAGCCUCCUCGCUGGCGCCGGCUGGGCAACAUUCCGAGGGGACCGUCCCCUCGGUAAUGGCGAAUGGGACCUA, the self-cleavage stood at 0.262.

Consider CGCCGGCAUGGUCCCAGCCUCCUCGCUGGCGCCGGCUGGGCAACAUUCCGAGGGGACCGUCCCCUCGGUAAUGGCGAAUGGGAGCCA, for which the self-cleavage stood at 0.

With CGCCGGCAUGGUCCCAGCCUCCUCGCUGGCGGCGGCUGGGCAACAUUCCGAGGGGACCGUCCCCUCGGUAAUGGCGAAUGGGACCCA, the self-cleavage is 0.

With CGCCGGCAUGAUCCCAGCCUCCUCGCUGGCGCCGGCUGGGCAACAUUCCGAGGGGACCGUCCCCUCGGUAAUGGCGAAUGGGACCCA, the self-cleavage came out at 0.0652.

With CGCCGGCAUGCUCCCAGCCUCCUCGCUGGCGCCGGCUGGGCAACAUUCCGAGGGGACCGUCCCCUCGGUAAUGGCGAAUGGGACCCA, the self-cleavage is 0.131.

For the variant CGCCGGCAUGGUCCCAGCCUCCUCGCUGGCGCCGGCUGGGGAACAUUCCGAGGGGACCGUCCCCUCGGUAAUGGCGAAUGGGACCCA, the self-cleavage was found to be 0.

As to CGCCGGCAUGGUCCCAGCCUCCUCGCUGGCGCCGGCUGGGCAACAUUCCGAGGGGACCGUCCCUUCGGUAAUGGCGAAUGGGACCCA, the self-cleavage came out at 0.155.

Take CGCCGGCAUGGUCCCAGCCUCCUCGCUGGCGCCGGCUGGGCAACAUUCCGAGGGGACCGUCCCCUCGGUAAUGGCGAAUGGGACCCC: the self-cleavage stood at 0.156.

Take CGCCGGCAUGGUCCCAGCCUCCUCGCUGGCGCCGGCUGGGCAACAUUCCGACGGGACCGUCCCCUCGGUAAUGGCGAAUGGGACCCA: the self-cleavage amounted to 0.256.

For the variant CGCCGGCAUAGUCCCAGCCUCCUCGCUGGCGCCGGCUGGGCAACAUUCCGAGGGGACCGUCCCCUCGGUAAUGGCGAAUGGGACCCA, the self-cleavage was 0.166.

CGCCGGCAUCGUCCCAGCCUCCUCGCUGGCGCCGGCUGGGCAACAUUCCGAGGGGACCGUCCCCUCGGUAAUGGCGAAUGGGACCCA: the self-cleavage was 0.095.

For CGCCGGCAUGGUCCCAGCCUCCUCGCUGGCGCCGGCUGGGCAACAUUCAGAGGGGACCGUCCCCUCGGUAAUGGCGAAUGGGACCCA, the self-cleavage stood at 0.237.

In the case of CGCAGGCAUGGUCCCAGCCUCCUCGCUGGCGCCGGCUGGGCAACAUUCCGAGGGGACCGUCCCCUCGGUAAUGGCGAAUGGGACCCA, the self-cleavage was 0.

As for CGCCGGCAUGGUCCCAGCCUCCUCGCUGGCGCCGGCUGGGCAACAUUCCGAGGGGACUGUCCCCUCGGUAAUGGCGAAUGGGACCCA, the self-cleavage was 0.0923.

Turning to AGCCGGCAUGGUCCCAGCCUCCUCGCUGGCGCCGGCUGGGCAACAUUCCGAGGGGACCGUCCCCUCGGUAACGGCGAAUGGGACCCA, the self-cleavage was found to be 0.107.

AGCCGGCAUGGUCCCAGCCUCCUCGCUGGCGCCGGCUGGGCAACAUUCCGAGGGGACCGUCCCCUCGGUAAGGGCGAAUGGGACCCA: the self-cleavage was 0.0665.

AGCCGGCAUGGUCCCAGCCUCCUCGCUGGCGCCGGCUGGGCAACAUUCCGAGGGGACCGUCCCCUCGGUAAAGGCGAAUGGGACCCA: the self-cleavage was determined as 0.246.

With CGCCGGCAUGGUCCCAGCCUCCUCGCUCGCGCCGGCUGGGCAACAUUCCGAGGGGACCGUCCCCUCGGUAAUGGCGAAUGGGACCCA, the self-cleavage is 0.

For CGCCGGCAUGGUCCCAGGCUCCUCGCUGGCGCCGGCUGGGCAACAUUCCGAGGGGACCGUCCCCUCGGUAAUGGCGAAUGGGACCCA, the self-cleavage was 0.

For the variant CGCCGGCAUGGUCCCAGCCUCCUCGCUGGCGCCGGCUUGGCAACAUUCCGAGGGGACCGUCCCCUCGGUAAUGGCGAAUGGGACCCA, the self-cleavage turned out to be 0.0396.

For the variant CGCCGGCAUGGUCCCAGCCUCCUCGCUGGCGCCGGCUCGGCAACAUUCCGAGGGGACCGUCCCCUCGGUAAUGGCGAAUGGGACCCA, the self-cleavage was found to be 0.

On to CGCCGCCAUGGUCCCAGCCUCCUCGCUGGCGCCGGCUGGGCAACAUUCCGAGGGGACCGUCCCCUCGGUAAUGGCGAAUGGGACCCA, for which the self-cleavage came to 0.

As to CGCCGGCAUGGUCCCAGCCUCCUCGCUGGCGCCGGCUGGGCAGCAUUCCGAGGGGACCGUCCCCUCGGUAAUGGCGAAUGGGACCCA, the self-cleavage was found to be 0.

Consider CGCCGGCAUGGUCCCAGCCUCCUCGCUGGCGCCGCCUGGGCAACAUUCCGAGGGGACCGUCCCCUCGGUAAUGGCGAAUGGGACCCA, for which the self-cleavage turned out to be 0.

As for CGCCGGCAUGGUCCCAGCCUCCUCGCUGGCGCCGACUGGGCAACAUUCCGAGGGGACCGUCCCCUCGGUAAUGGCGAAUGGGACCCA, the self-cleavage stood at 0.208.

Take CGCCGGCAUGGUCCCAGCCUCCUCGCUGGCGCCGGUUGGGCAACAUUCCGAGGGGACCGUCCCCUCGGUAAUGGCGAAUGGGACCCA: the self-cleavage was determined as 0.394.

Turning to CGCCGGCAUGGUCCCAACCUCCUCGCUGGCGCCGGCUGGGCAACAUUCCGAGGGGACCGUCCCCUCGGUAAUGGCGAAUGGGACCCA, the self-cleavage was found to be 0.332.

With CGCCGGCAUGGUCCCACCCUCCUCGCUGGCGCCGGCUGGGCAACAUUCCGAGGGGACCGUCCCCUCGGUAAUGGCGAAUGGGACCCA, the self-cleavage stood at 0.

On to CGCCGGCAUGGUCCCAUCCUCCUCGCUGGCGCCGGCUGGGCAACAUUCCGAGGGGACCGUCCCCUCGGUAAUGGCGAAUGGGACCCA, for which the self-cleavage is 0.0573.

Turning to CGCCGGCGUGGUCCCAGCCUCCUCGCUGGCGCCGGCUGGGCAACAUUCCGAGGGGACCGUCCCCUCGGUAAUGGCGAAUGGGACCCA, the self-cleavage was determined as 0.123.

Take CGCCGGCAUGGUCCCAGCCUCCUCGCUGGCGCCGGCUGGGCAACAUUCCGAGGGGACCCUCCCCUCGGUAAUGGCGAAUGGGACCCA: the self-cleavage was 0.365.
